# Molecular target: A/Anhui/1/2013 H7N9 NA, thrombin-digested (for crystals) (influenza A virus A/Anhui/1/2013 (H7N9))
# Experiment: crystal structure
substance,measurement,value
"A/Anhui/1/2013 H7N9 NA, thrombin-digested (for crystals) (domain or fragment)",stoichiometry N,4

# Source: paper PMC7542365 (mBio, 2020)
